{"source": "a protein production outcome set (Wang et al. 2014)", "test": "label from the status in PepcDB records"}
{"sequence": "MNRNLLLFASGSFVSLIGTRIYQVALAWWLYSKTGSSEYVGLFMISSFLPAIIVSPFAGTVVDRHSRRNMMVVMDILRGVLFMYLFLMEYFSELTMALLLIVTVLVSVFDSFFNPAVDSLLPDLVRKENLVRANSLYRLLKNLSKILGPALGSLLLKVVGLAGVILINSLSFLISGIFEMFIKVEEKHLKKVSKERNMWQDIKSALLYIRSVRFILVTILVIAIMNFFTGSMHVLLPEHVSKLGKSEWVYGTLMSMLSFGGLIVTFLMATIRTRASVKTLGLNLVGYGLAVFVFAMTGNHWLMFAMYFLIGIFQTLFNINVITLLQLAIPEEMRGKIFSLISAVSFSLLPVSYGFFGFLSSYVATAHIFITTSMALIAGGVLISLQRFEG", "values": [{"measurement": "protein production", "value": "failed"}]}
{"sequence": "MKEGKHFVLVHGACHGGWSWYKLKPLLEAAGHKVTALDLAASGTDLRKIEELRTLYDYTLPLMELMESLSADEKVILVGHSLGGMNLGLAMEKYPQKIYAAVFLAAFMPDSVHNSSFVLEQYNERTPAENWLDTQFLPYGSPEEPLTSMFFGPKFLAHKLYQLCSPEDLALASSLVRPSSLFMEDLSKAKYFTDERFGSVKRVYIVCTEDKGIPEEFQRWQIDNIGVTEAIEIKGADHMAMLCEPQKLCASLLEIAHKYNLEHHHHHH", "values": [{"measurement": "protein production", "value": "not failed"}]}
{"sequence": "MNIFEQTPPNRRRYGLAAFIGLIAGVVSAFVKWGAEVPLPPRSPVDMFNAACGPESLIRAAGQIDCSRNFLNPPYIFLRDWLGLTDPNAAVYTFAGHVFNWVGVTHIIFSIVFAVGYCVVAEVFPKIKLWQGLLAGALAQLFVHMISFPLMGLTPPLFDLPWYENVSEIFGHLVWFWSIEIIRRDLRNRITHEPDPEIPLGSNR", "values": [{"measurement": "protein production", "value": "failed"}]}
{"sequence": "MLTLHIGGIGIGEPLWFICNILVSFIFSYKLFNSILHNNNISYIFALIYTFSPAMAVLTYSTSWETVLSYAFSPLILYLLYLTFNNLELKGLSFDLILISIFMYVYYFDTDVIMWEGILVVSMLIYLTISHTNRKNCS", "values": [{"measurement": "protein production", "value": "failed"}]}
{"sequence": "MPVNQYQQEVGETLEHFAVGQMPDVKFLEGRYCSVEHIDARKHLNDIIDFYWKNAVPSDWTYMFDQPFETAEAVQERLQDYEKSENPYFFAIRDKETDKVLGTFSLMRIDPKNRVLEMGRVIYAPALQKTSAATEAQYLVMNYVFENLGYRRYEWKCDHLNQSSGNAAKRLGFTYEGTFRKHVVYKGRTRDTDWFSVIDQDWPKLKKRFENWLSPKNFDKTGQQIKALKDC", "values": [{"measurement": "protein production", "value": "failed"}]}
{"sequence": "MWKCHRYMMSSHLHRQLDLINMEIKTIASGSKGNAYVISSGRSQLLIECGVNFDKIRKALNFDLSAVEACLISHEHGDHVAGVKKMLRTSSIKIYASEGTLSALNVPDSRQFILKEKDAQNIGEWIILPFQTEHDAKEPLGFMIQRHNERLLFITDSYFVRYKFKNINYLMIECNYSADILEENVINKVIHQVQKKRVLQSHFSLENVKEFLNANDLSQLREIHLLHISERNGDPERFKKEIQAMTGVPVYV", "values": [{"measurement": "protein production", "value": "failed"}]}
{"sequence": "MNNRFNGTSIKQYSTTFLLLGSMASAAHVRAADEFHPNSFNSEALKQSMIAEFALAYDDVPTAIHNYTVLAIKSNSTSIKQRALDIALEYNDLKAALDIATHWVVQEPEDVPAMFYLAHIALRAHEYKLAANTLDKILNIDPNADLEQILAGIAPESKEDRENLLETLKTSKEKENPSILVMIAGLEAQNGHLQDALINTNRALRKRPKVTGFILMKANLLIGLNDIEGAQKWYAKSSKRHRDNLDIRLAEARFLIRHNESELALKKLEDIIKTWPDAEDAKFIAGLTSIDLKQYEKAEQYLVDLRYSAKYQNDAYYYLAVNAERKQHFETAKAYYRLVDGSLYVVSRRNLVSIFEKQGNLNDALRFLTQERVNYPQHASFLYQAQAEILKKTGNKKAALRLLDEAIKNISDDPELIYAEVLLLDPFSDRDKLDRTLKQLLLIEPNSPTYLNAYAYTLALQNRRLDEARQYAELALEYAPEQASILDTLGYIAFLQNDYAAAATSLGKAYTLSNNVNIGIRFAKALYMQGNLTEFSEVLQQLKEKNANDPQLKQLDALILPTVTKKS", "values": [{"measurement": "protein production", "value": "failed"}]}
{"sequence": "MKTAWLLLLLLGVGALGGCAVNPATGKSDFVMMSEQQELGMGARYNQEILKQFPRYNDEKLQAYVQRVGERVARSSHRSNLQYHFTVIDSPDINAFALPGGYIYIHRGLIAYLGSEAELAAVLGHEVGHVTARHSVRQQSQASAWNILGQAVAIGTGVGAAGDLANVLGTAFVRGYGRDMELEADGLGAQYLARAGYDPTAMIQVVRVLKNQEDFAREEAARNGQAVQAGGYHGLFDTHPDNDRRLQEVVGPARQLANGQQEVGREVFLRHLEGMPFGDSASAGVRRGQNFYHAELDFTLSYPAGWKILNQPSALLGYPADEQSFIGMKLVPHDSRLTPAEFLRKNAGQRLAQEESLKQAGLNGYTAVVPGNPARRVAVIYQGDRAYLFVGVVKVGSLETQDDRFLSVIRSFRPLRDKERALAQPRRLHLVQVKAGQTLEQLAAGGEGSLSDSVARLRLLNDLYPSGEPRPGDWLKVVR", "values": [{"measurement": "protein production", "value": "failed"}]}
{"sequence": "MFPSRRKAAQLPWEDGRSGLLSGGLPRKCSVFHLFVACLSLGFFSLLWLQLSCSGDVARAVRGQGQETSGPPRACPPEPPPEHWEEDASWGPHRLAVLVPFRERFEELLVFVPHMRRFLSRKKIRHHIYVLNQVDHFRFNRAALINVGFLESSNSTDYIAMHDVDLLPLNEELDYGFPEAGPFHVASPELHPLYHYKTYVGGILLLSKQHYRLCNGMSNRFWGWGREDDEFYRRIKGAGLQLFRPSGITTGYKTFRHLHDPAWRKRDQKRIAAQKQEQFKVDREGGLNTVKYHVASRTALSVGGAPCTVLNIMLDCDKTATPWCTFS", "values": [{"measurement": "protein production", "value": "failed"}]}
{"sequence": "MANRQRGVALIIVLMLLAIMATIAATMSERLFLQFQRGSNQIHYQQAYWYSVGVEALAEVGIEQSYKDSDTINLSQPWAIKEQVYPLDYGQAAGRIWDKQACFNLNVLSRVQPTGQQTTRPYLVQVLQRLLEESDVEPYQAEVIADSTWEYIDSDSTVRSTTGVEDSTYESMKPSYLAANGWMADKTELRAVYQVSGEIYQKIEPLVCAIPSDDWRLNVNTIEVEQAPILVAMFSPNLSSSDAVQLIEKRPFDGWDSVDEFLAESELTGLSDDVKKNAKGYLGVDSSFFELDAQVLVDDSRVRIRSLLQSTNRETVTVVRRRFGGISERVSDRSAE", "values": [{"measurement": "protein production", "value": "failed"}]}
{"sequence": "MDHLLSGLATRLGQGPFVADRTGSYHLRIDGQSVLLLRQGDDLLLESPLEHAPLDPQRDQQGLLRALLSRVASWSRRYPQAIVLDADGRLLLQARLGLDGLDPERLERALAAQVGLLEALAPELEPLPRGLPPQAPVWRP", "values": [{"measurement": "protein production", "value": "failed"}]}
{"sequence": "VTATETVRVRFCPSPTGTPHVGLVRTALFNWAYARHTGGTFVFRIEDTDAQRDSEESYLALLDALRWLGLDWDEGPEVGGPYGPYRQSQRAEIYRDVLARLLAAGEAYHAFSTPEEVEARHVAAGRNPKLGYDNFDRHLTDAQRAAYLAEGRQPVVRLRMPDDDLAWNDLVRGPVTFAAGSVPDFALTRASGDPLYTLVNPCDDALMKITHVLRGEDLLPSTPRQLALHQALIRIGVAERIPKFAHLPTVLGEGTKKLSKRDPQSNLFAHRDRGFIPEGLLNYLALLGWSIADDHDLFGLDEMVAAFDVADVNSSPARFDQKKADALNAEHIRMLDVGDFTVRLRDHLDTHGHHIALDEAAFAAAAELVQTRIVVLGDAWELLKFFNDDQYVIDPKAAAKELGPDGAAVLDAALAALTSVTDWTAPLIEAALKDALIEGLALKPRKAFSPIRVAATGTTVSPPLFESLELLGRDRSMQRLRAARQLVGHA", "values": [{"measurement": "protein production", "value": "not failed"}]}
{"sequence": "MISDLPDDLESEILSRVPTKSLAKLQTMGNTRLVVWDSSTGETRWIKPRTRFRNDDYYGLGYVNSKSSGHSFKILRSCYYRNDQKQWVAEFEIYEFGSDTWRVLDYFTHDYGVFSSGGPLKRNTYWVAGDKEMGMFMLYFDFTRERFGHFPLPFKSFNREDTASLSVVREEKLSVLHQKILEFSNEMKIWLTNKIDETIELSWSNFVLTVDYDKFNLPSVVNVASFLLDEENKVAVCSDIDVDDENRTRVYVVGEDIYKQVYKDTTKASYFNCSTSCSIYW", "values": [{"measurement": "protein production", "value": "failed"}]}
